The values below come from PMC12450071.

The assay has as its target JUNV GP1 (receptor-binding domain), subunit within the GPC on PV membranes (Junin virus strain MC2). The assay is described as follows: cryo-EM structure.

For “JUNV GP1 (receptor-binding domain), subunit within the GPC on PV membranes (domain or fragment)”, the stoichiometry N came out at 3.
